Assay results published in patent US20110287023A1 (AstraZeneca / MedImmune, published 2011).
Where no end group is shown, it is not given here.

Experiments:
[1] = target: T1, HMGB1 peptide 106-123 (also: biotinylated, site and spacer not given here); assay: ELISA, biotinylated peptide on NeutrAvidin plate, antibody serially diluted from 10 ug/ml, anti-human IgG-HRP, OD 450
T1 peptide: CSEYRPKIKGEHPGLSIG
Procedure: (§1) The plate was then blocked with 4% milk powder dissolved in PBS at 37° C. for 1 hour. The blocking solution was removed and replaced with human anti-HMG1 antibodies at various concentrations (see FIGS. 5A-B). […] HRP activity was detected with Sureblue HRP substrate (KPL). Plates were read at 450 nm using a Kinetic Microplate Reader (Molecular Devices). […] After washing and blocking with 1% BSA in PBS, the biotinylated peptides were individually added into the avidin coated wells and incubated for 30 min at room temperature. The serial diluted antibody G4, S16 and S6 at the initial concentration at 10 μg/ml were then transferred into the wells followed by adding mouse anti human IgG-HRP conjugate (Pierce). Detection was accomplished by adding 50 μl of tetramethylbenzidine (TMB) substrate (KPL) and the absorbance was read at 450 nm.

[2] = target: T2, activated HMG1 from LPS stimulated THP-1 cells (human, UniProt P09429 1-215); assay: sandwich ELISA: antibody titrated and captured on anti-human IgG Fc, activated HMG1 in solution, mouse anti-HMGB1 detection, OD 450
T2 sequence (looked up): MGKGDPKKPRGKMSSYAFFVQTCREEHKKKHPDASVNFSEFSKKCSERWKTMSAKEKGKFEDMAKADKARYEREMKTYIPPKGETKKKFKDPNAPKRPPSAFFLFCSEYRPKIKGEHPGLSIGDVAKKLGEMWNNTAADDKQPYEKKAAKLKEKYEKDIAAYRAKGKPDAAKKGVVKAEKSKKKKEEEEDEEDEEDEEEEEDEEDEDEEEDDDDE
Procedure: Sandwich ELISA (soluble HMG1): Immunoplates (EIA/RIA plate, High binding, Costar) were coated with anti human IgG Fc at 10 μg/ml in PBS (pH 7.2) and incubated at 4° C. overnight. The coating reagent was removed and the plates were rinsed briefly with PBS. The plates were then blocked with 4% milk for 1 hour at 37° C. and rinsed with PBS. The anti-HMG1 antibodies were diluted in 4% milk. For serial dilutions, the antibodies were used at a starting concentration of 20 μg/ml. The diluted anti-HMG1 antibodies were then added into plate and incubated for 1 hr at 37° C. The plate was then washed 10 times with PBST (PBS/0.1% tween 20) and incubate with antigen (HMGB1, 2 μg/ml; or 0.7 μg/ml for native HMGB1) in 4% milk and incubated at 37° C. for 1 h. The plate was then wash 10 times and incubated with mouse anti-HMGB1, 1 μg/ml in 4% milk at 37° C. for 1 h. The plate was washed 10 times and incubated with anti-mouse IgG-HRP at 1:1000 at 37° C. for 1 h. The plate was then washed and developed. HRP activity was detected with Sureblue HRP substrate (KPL). Plates were read at 450 nm using a Kinetic Microplate Reader (Molecular Devices).

[3] = target: T3, actively secreted HMGB1 of LPS treated HUVEC cells (UniProt P09429 1-215, limits assumed); assay: immunofluorescence on fixed LPS treated HUVEC, anti-human IgG-FITC; paragraph 81 gives the lower panels as G4
T3 construct: whole, on cells; immunostaining
T3 sequence (looked up): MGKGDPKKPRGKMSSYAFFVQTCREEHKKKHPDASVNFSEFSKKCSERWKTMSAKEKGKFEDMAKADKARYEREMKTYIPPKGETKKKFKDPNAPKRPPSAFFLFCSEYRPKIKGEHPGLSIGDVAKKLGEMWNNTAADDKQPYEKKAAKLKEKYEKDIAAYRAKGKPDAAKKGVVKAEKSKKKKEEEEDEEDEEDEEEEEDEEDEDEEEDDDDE
Procedure: (§2) Immunofluorescence: Intracytoplasmic (ic) HMGB1 was quantitated by direct immunofluorescence. HUVEC were harvested by trypsin-EDTA treatment and seeded on a glass coverslip. Once the cells are settled, they were stimulated with 0.2 μg/ml of LPS (Sigma) for 4 hours. The cells were fixed in 2% paraformaldehyde for 15 min and then permeabilized in 0.2% Triton X-100 for 2 min. Fixed and permeabilized cells were incubated with anti-HMGB1 antibodies at 1 μg/ml for 1 hour at room temperature. Cells were then washed to remove excess or nonspecifically bound primary antibody followed by incubation with anti human IgG conjugated with fluorescence (Pierce). The sections were mounted with fluoromount (Southern Associates, Birmingham, Ala.), and the images were processed with a Nikon microscope (Japan) and a SPOT imaging system (Diagnostic Instrument).

[4] = target: T4, nuclear HMGB1 in fixed HUVEC cells (UniProt P09429 1-215, limits assumed); assay: immunofluorescence on fixed HUVEC, anti-human IgG-FITC; paragraph 81 gives the lower panels as G4
T4 construct: whole, on cells; immunostaining
T4 sequence (looked up): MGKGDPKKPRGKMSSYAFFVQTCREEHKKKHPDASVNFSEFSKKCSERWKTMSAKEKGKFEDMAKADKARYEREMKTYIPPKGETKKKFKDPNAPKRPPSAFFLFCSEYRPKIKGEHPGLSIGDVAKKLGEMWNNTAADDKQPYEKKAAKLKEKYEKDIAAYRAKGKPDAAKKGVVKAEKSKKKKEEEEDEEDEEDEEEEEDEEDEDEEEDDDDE
Procedure: as §2

[5] = target: T5, HMGB1 in joint lysate of adjuvant induced arthritis (AIA) rats (rat, UniProt P63159 2-215); assay: sandwich ELISA: antibody captured on anti-human Fc, AIA joint lysate added, mouse anti-HMGB1 detection, OD 450
T5 construct: also called HMGB1 from arthritis joints; joint lysate HMGB1
T5 sequence (looked up): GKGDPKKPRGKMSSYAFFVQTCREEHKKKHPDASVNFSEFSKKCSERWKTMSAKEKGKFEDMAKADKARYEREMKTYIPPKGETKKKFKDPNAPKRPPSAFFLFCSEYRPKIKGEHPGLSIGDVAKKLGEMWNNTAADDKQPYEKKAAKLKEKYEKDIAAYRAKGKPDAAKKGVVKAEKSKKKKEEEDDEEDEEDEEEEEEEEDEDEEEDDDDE
Procedure: HMGB1 Detection from Biological Samples: For detection of the HMGB1 from AIA joint homogenates and peritonitis sera, sandwich ELISA was performed. Goat anti-human Fc (Pierce) 14 μg/ml in PBS was coated on Immunlon IV microtiter plate over night at 4° C. After washing and blocking with 5% milk 1 hr at room temperature, G4 or S6 in blocking buffer (10 μg/ml) were added to each well of the blocked plate. The plate was washed 1 hour later and 25 μl of AIA homogenates containing 0.8 μg/ml of HMGB1 or peritonitis sera containing 7 μg/ml of HMGB1 in 0.5 M NaCl/blocking buffer were added to the wells at two fold serial dilutions. The unbound materials were removed by washing one hr after incubation. The bound HMGB1 was detected by a mouse anti-HMGB1 antibody at 2 μg/ml followed by an anti-mouse antibody conjugated with horseradish peroxidase. Mouse peritonitis sera was obtained by heart puncture 7 days after infection with heat killed staphylococcus aureus. Joint lysate was prepared from the whole paw of AIA rats as described in Example 6 below. Human sepsis sera were purchased from a commercial source.

[6] = target: T6, HMGB1 peptide 179-186 (UniProt P09429 179-186, also: biotinylated, site not given here); assay: ELISA, biotinylated peptide on NeutrAvidin plate, antibody serially diluted from 10 ug/ml, anti-human IgG-HRP, OD 450
T6 peptide (looked up): EKSKKKKE
Procedure: as §1

[7] = target: T7, HMGB1 peptide 166-183 (UniProt P09429 166-183, also: biotinylated, site not given here); assay: as above
T7 peptide (looked up): GKPDAAKKGVVKAEKSKK
Procedure: as §1

Measured: binding result

B1: human anti-HMG1 antibody G4 (antibody, IgG1, V domains shown)
VH: EVQLLESGGGLVQPGGSLRLSCAASGFTFSWYDMTWVRQAPGKGLEWVSSISPSGGYTKYADSVKGRFTISRDNSKNTLYLQMNSLRAEDTAVYYCTTEFYDYLDVWGKGTTVTVSS
VL: DIQMTQSPGTLSLSPGEGATLSCRASQSVSSTYLAWYQQKPGQAPRLLIYEASKRATGTPARFSGSGSGTDFTLSISSLEPEDFAVYYCQHRHNWPPQWTFGQGTKVEVK
notes: full length IgG1 made from a human Fab phage clone; also called ATCC PTA-6258
not listed: [6] | [7]
binds: all other assays above

B2: human anti-HMG1 antibody S16 (antibody, IgG1, V domains shown)
VH: EVQLLESGGGLVQPGGSLRLSCAASGFTFSWYSMLWVRQAPGKGLEWVSYISPSGGFTNYADSVKGRFTISRDNSKNTLYLQMNSLRAEDTAVYYCARWDYNSGWYYDHWGQGTLVTVSS
VL: DIQMTQSPDTLSLSPGERATLSCRASQSVNSRNLAWYQQKPGQAPRLLIYGASTRATGIPDRFSGSVSGTEFTLTISSLQPDDFATYYCQQYNSYFTFGQGTKLEIK
notes: full length IgG1 made from a human Fab phage clone; also called ATCC PTA-6259
binds: [6] | [7]
